From article PMC8609364, “A Selective Tether Recruits Activated Response Regulator CheB to Its Chemoreceptor Substrate” (mBio, 2021)

B1: methylesterase/deamidase CheB from E. coli, low-activity, unphosphorylated form (enzyme, UniProt P07330 1-349, looked up)
chain: MSKIRVLSVDDSALMRQIMTEIINSHSDMEMVATAPDPLVARDLIKKFNPDVLTLDVEMPRMDGLDFLEKLMRLRPMPVVMVSSLTGKGSEVTLRALELGAIDFVTKPQLGIREGMLAYNEMIAEKVRTAAKASLAAHKPLSAPTTLKAGPLLSSEKLIAIGASTGGTEAIRHVLQPLPLSSPALLITQHMPPGFTRSFADRLNKLCQIGVKEAEDGERVLPGHAYIAPGDRHMELSRSGANYQIKIHDGPAVNRHRPSVDVLFHSVAKQAGRNAVGVILTGMGNDGAAGMLAMRQAGAWTLAQNEASCVVFGMPREAINMGGVCEVVDLSQVSQQMLAKISAGQAIRI
notes: CheB methylesterase/deamidase of E. coli, unphosphorylated, from plasmid pCW/cheB; measured with 2 mM DTT in the buffer; also called low-activity CheB; unmodified CheB; source: E. coli K-12 RP3098 with pCW/cheB, purified
B2: CheBC, catalytic domain of E. coli CheB lacking the regulatory domain and linker (domain or fragment)
chain: LSSEKLIAIGASTGGTEAIRHVLQPLPLSSPALLITQHMPPGFTRSFADRLNKLCQIGVKEAEDGERVLPGHAYIAPGDRHMELSRSGANYQIKIHDGPAVNRHRPSVDVLFHSVAKQAGRNAVGVILTGMGNDGAAGMLAMRQAGAWTLAQNEASCVVFGMPREAINMGGVCEVVDLSQVSQQMLAKISAGQAIRI

What was measured:
[1] = tested on: Tar4EΔpp (chemoreceptor Tar, all-glutamyl, lacking NWETF); assay: CheB binding to Tar4EΔpp (pentapeptide-lacking) in Nanodiscs (biolayer interferometry); set-up: species or system E. coli; details: Tar 4E, pentapeptide no, BLI, pH 7.5, 2% BSA (plus 2 mM DTT for CheB and CheBc); for dwell time (1/koff): calculated from mean koff; for dwell time (1/koff) / KA (equilibrium association constant): propagated SD; for KA (equilibrium association constant): calculated from mean kon and koff; for kon (apparent association rate constant): mean ± SD of at least three independent experiments
Protocol: (§1) We determined the kinetics of association and dissociation of methylesterase/deamidase CheB in its low- and high-activity form with the E. coli aspartate chemoreceptor Tar using biolayer interferometry ([22], [23]) and isolated receptor homodimers in Nanodiscs ([24], [25]). Apparent rate constants of association and dissociation were derived from global fits of time courses for binding and release (see Fig. S1 in the supplemental material). Equilibrium dissociation constants were calculated from those apparent rate constants.
(§2) E. coli CheB and Salmonella CheB D56C/C207S/C309S and D56C/S164A/C207S/C309S were purified as described previously ([11]). CheBC (amino acids [aa] 153 to 349) was purified using the procedure of West et al. ([40]), except that Bio-Gel P-60, was not used. CheB D56C/C207S/C309S and CheB D56C/S164A/C207S/C309S were modified to create a disulfide-linked phosphoryl group on D56C following the procedure described in reference but using a 10-fold molar excess of DTNB [Ellman’s reagent, 5,5′-disulfanediylbis(2-nitrobenzoic acid)] rather than 90-fold and a 50-fold molar excess Na3SPO3 rather than 1,000-fold. The extent of modification was 59% for the former and 60% for the latter determined by reversed phase chromatography essentially as described previously ([26]) and confirmed by Nano LC-Nanospray QTQF mass spectroscopy. Membrane scaffold protein MSP1D1(-) ([41]) was purified as described previously ([25]). Tar4E L378C, Tar4Q L378C, Tar4EΔpp-6H L378C, and Tar4QΔpp-6H L378C were purified, incorporated into Nanodiscs at approximately one receptor dimer per disc, and biotinylated at L378C as described previously ([23], [42]). […] These activities were confirmed for representative samples used in our analyses. Receptor-containing Nanodiscs were dialyzed into 50 mM Tris-HCl (pH 7.5), 0.5 mM EDTA, 10% (wt/vol) glycerol, and 100 mM NaCl. Prior to a binding experiment, the solution was changed using a spin desalting column to 50 mM Tris-HCl, 10% (wt/vol) glycerol, 5 mM MgCl2, and 50 mM KCl (pH 7.5).
(§3) Kinetics of CheB association and dissociation with Nanodisc-embedded Tar biotinylated at L378C were determined using biolayer interferometry ([22], [23]) as measured by a BLItz instrument (ForteBio, Menlo Park, CA, USA) and described in reference. Representative time course experiments are shown in Fig. S1 in the supplemental material. Measurements for CheB-P* and CheB-P*-I were in 50 mM Tris-HCl (pH 7.5), 10% (wt/vol) glycerol, 5 mM MgCl2, 50 mM KCl, and 2% (wt/vol) bovine serum albumin (BSA). Measurements for CheB and CheBc were in the same solution plus 2 mM dithiothreitol (DTT).
(§4) Using BLItz software, response curves were fit globally to a 1:1 binding model to yield apparent association rate constants (kon) and dissociation rate constants (koff). For analysis of complex patterns of binding, in which more than one binding reaction appeared to be contributing, for instance one that appeared saturable and another nonspecific, nonsaturable, the data were exported and fit globally to nonlinear exponential functions using OriginPro 2017. The best fits to the data were obtained using the following functions. R=R0 + Req[a(e^−kd1 t) + b(e^−kd2 t)] was used to globally fit dissociation time courses, with R being the response (in nanometers), a + b = 1, with a and b being the portion of the signal (in nanometers) for fast and slow phases, respectively, kd1 and kd2 being the respective dissociation rate constants, and Req being the response at equilibrium. Association data were fit using apparent dissociation rate constants kd1 and kd2, relevant CheB concentrations (C) and the equation R=R0 + Req[a(1 − e^−(ka1 C+kd1)t) + b(1 − e^−(ka2 C+kd2)t)]

[2] = target: Tar4QΔpp-6H L378C, E. coli Tar lacking the carboxyl-terminal pentapeptide, all-glutaminyl form, homodimer in … (E. coli, UniProt P07017 1-553, L378C, biotinylated at L378C); assay: SPR
[3] = target: Tar4Q L378C, E. coli aspartate chemoreceptor Tar, all-glutaminyl form with carboxyl-terminal pentapeptide, … (E. coli, UniProt P07017 1-553, L378C, biotinylated at L378C); assay: SPR
[4] = target: Tar4E L378C, E. coli aspartate chemoreceptor Tar, all-glutamyl form with carboxyl-terminal pentapeptide, … (E. coli, UniProt P07017 1-553, L378C, biotinylated at L378C); assay: SPR
[5] = target: Tar4EΔpp-6H L378C, E. coli Tar lacking the carboxyl-terminal pentapeptide, all-glutamyl form, homodimer in … (E. coli, UniProt P07017 1-553, L378C, biotinylated at L378C); assay: SPR
[6] = target: Tar4Q (chemoreceptor Tar, all-glutaminyl, pentapeptide-bearing); assay: CheB binding to pentapeptide-bearing Tar4Q in Nanodiscs (biolayer interferometry); set-up: species or system E. coli; details: Tar 4Q, pentapeptide yes, BLI; for dwell time (1/koff) / KA (equilibrium association constant) / kon (apparent association rate constant): pH 7.5, 2% BSA (plus 2 mM DTT for CheB and CheBc); for dwell time (1/koff): calculated from mean koff; for kon (apparent association rate constant): mean ± SD of at least three independent experiments
Protocol: as §1, §2, §3, §4

[7] = tested on: Tar4QΔpp (chemoreceptor Tar, all-glutaminyl, lacking NWETF); assay: CheB binding to Tar4QΔpp (pentapeptide-lacking) in Nanodiscs (biolayer interferometry); set-up: species or system E. coli; details: Tar 4Q, pentapeptide no, BLI, pH 7.5, 2% BSA (plus 2 mM DTT for CheB and CheBc); for dwell time (1/koff): calculated from mean koff; for dwell time (1/koff) / KA (equilibrium association constant): propagated SD; for KA (equilibrium association constant): calculated from mean kon and koff; for kon (apparent association rate constant): mean ± SD of at least three independent experiments
Protocol: as §1, §2, §3, §4

[8] = calculated from mean kon and koff, propagated SD

Molecule | dwell time (1/koff) [1] [s] | KA (equilibrium association constant) [1] | kon (apparent association rate constant) [1] [M⁻¹ s⁻¹] | Ka [2] [M⁻¹] | Ka [3] [M⁻¹] | Ka [4] [M⁻¹] | Ka [5] [M⁻¹] | Kd ([6]; 50 mM Tris-HCl pH 7.5, 10% glycerol, 5 mM MgCl2, 50 mM KCl, 2% BSA (plus 2 mM DTT for CheB and CheBc), calculated from mean kon and koff, propagated SD, read-out: KD (equilibrium dissociation constant)) [µM] | dwell time (1/koff) ([6]; propagated SD) [s] | KA (equilibrium association constant) [6, 8] | kon (apparent association rate constant) [6] | dwell time (1/koff) [7] [s] | KA (equilibrium association constant) [7] | kon (apparent association rate constant) [7]
B1 | 1.6 ± 0.2 | 1.2 ± 0.1 10^3 M^-1 | 750 ± 8 | 1700 | 6300 | 4400 | 1200 | 160 ± 30 | 2.2 ± 0.1 | 6.3 ± 1 10^3 M^-1 | 2,900 ± 480 M^-1s^-1 | 1.5 ± 0.05 | 1.7 ± 0.4 10^3 M^-1 | 1,100 ± 260 M^-1s^-1
B2 | 2.3 ± 0.2 | 1.5 ± 0.3 10^3 M^-1 | 670 ± 140 | 800 | 700 | 1700 | 1500 | – | 2.1 ± 0.4 | 0.7 ± 0.2 10^3 M^-1 | 350 ± 60 M⁻¹ s⁻¹ | 1.7 ± 0.1 | 0.8 ± 0.1 10^3 M^-1 | 480 ± 20 M⁻¹ s⁻¹
